Assay results as given in article doi:10.1101/2022.09.09.507385 (bioRxiv, 2022).

Molecular target: the molecule itself
Test: cryo-EM structure

B1: human Pannexin1 wild type (PANX1WT), full length (natural protein)
chain: MAIAQLATEYVFSDFLLKEPTEPKFKGLRLELAVDKMVTCIAVGLPLLLISLAFAQEISIGTQISCFSPSSFSWRQAAFVDSYCWAAVQQKNSLQSESGNLPLWLHKFFPYILLLFAILLYLPPLFWRFAAAPHICSDLKFIMEELDKVYNRAIKAAKSARDLDMRDGACSVPGVTENLGQSLWEVSESHFKYPIVEQYLKTKKNSNNLIIKYISCRLLTLIIILLACIYLGYYFSLSSLSDEFVCSIKSGILRNDSTVPDQFQCKLIAVGIFQLLSVINLVVYVLLAPVVVYTLFVPFRQKTDVLKVYEILPTFDVLHFKSEGYNDLSLYNLFLEENISEVKSYKCLKVLENIKSSGQGIDPMLLLTNLGMIKMDVVDGKTPMSAEMREEQGNQTAELQGMNIDSETKANNGEKNARQRLLDSSC
Does B1 bind?
Result: binds

B2: human Pannexin1 double mutant W74R/R75D (PANX1DM) (natural protein)
chain: MAIAQLATEYVFSDFLLKEPTEPKFKGLRLELAVDKMVTCIAVGLPLLLISLAFAQEISIGTQISCFSPSSFSRDQAAFVDSYCWAAVQQKNSLQSESGNLPLWLHKFFPYILLLFAILLYLPPLFWRFAAAPHICSDLKFIMEELDKVYNRAIKAAKSARDLDMRDGACSVPGVTENLGQSLWEVSESHFKYPIVEQYLKTKKNSNNLIIKYISCRLLTLIIILLACIYLGYYFSLSSLSDEFVCSIKSGILRNDSTVPDQFQCKLIAVGIFQLLSVINLVVYVLLAPVVVYTLFVPFRQKTDVLKVYEILPTFDVLHFKSEGYNDLSLYNLFLEENISEVKSYKCLKVLENIKSSGQGIDPMLLLTNLGMIKMDVVDGKTPMSAEMREEQGNQTAELQGMNIDSETKANNGEKNARQRLLDSSC
Does B2 bind?
Result: binds

B3: human Pannexin1 congenital mutant R217H (PANX1_(R217H)) (natural protein)
chain: MAIAQLATEYVFSDFLLKEPTEPKFKGLRLELAVDKMVTCIAVGLPLLLISLAFAQEISIGTQISCFSPSSFSWRQAAFVDSYCWAAVQQKNSLQSESGNLPLWLHKFFPYILLLFAILLYLPPLFWRFAAAPHICSDLKFIMEELDKVYNRAIKAAKSARDLDMRDGACSVPGVTENLGQSLWEVSESHFKYPIVEQYLKTKKNSNNLIIKYISCHLLTLIIILLACIYLGYYFSLSSLSDEFVCSIKSGILRNDSTVPDQFQCKLIAVGIFQLLSVINLVVYVLLAPVVVYTLFVPFRQKTDVLKVYEILPTFDVLHFKSEGYNDLSLYNLFLEENISEVKSYKCLKVLENIKSSGQGIDPMLLLTNLGMIKMDVVDGKTPMSAEMREEQGNQTAELQGMNIDSETKANNGEKNARQRLLDSSC
Does B3 bind?
Result: binds

B4: human Pannexin3 (PANX3), full length (natural protein)
chain: MSLAHTAAEYMLSDALLPDRRGPRLKGLRLELPLDRIVKFVAVGSPLLLMSLAFAQEFSSGSPISCFSPSNFSIRQAAYVDSSCWDSLLHHKQDGPGQDKMKSLWPHKALPYSLLALALLMYLPVLLWQYAAVPALSSDLLFIISELDKSYNRSIRLVQHMLKIRQKSSDPYVFWNELEKARKERYFEFPLLERYLACKQRSHSLVATYLLRNSLLLIFTSATYLYLGHFHLDVFFQEEFSCSIKTGLLSDETHVPNLITCRLTSLSIFQIVSLSSVAIYTILVPVIIYNLTRLCRWDKRLLSVYEMLPAFDLLSRKMLGCPINDLNVILLFLRANISELISFSWLSVLCVLKDTTTQKHNIDTVVDFMTLLAGLEPSKPKHLTNSACDEHP
modifications: N-acetylglucosamine (NAG) at N71; disulfide bonds C66-C261 and C84-C242
For B4, which “stoichiometry N” value is on record?
The value was 7.
